Measured values published in FireProtDB (doi:10.1016/0301-4622(94)00157-f).

Conditions: Hirudo medicinalis, Thermal, DSC, reversible: yes, whole UniProt chain shown

B1: Eglin C wild type, P01051 (protein)
chain: TEFGSELKSFPEVVGKTVDQAREYFTLHYPQYDVYFLPEGSPVTLDLRYNRVRVFYNPGTNVVNHVPHVG
- Tm (pH 1.1, glycine-HCl 50mM): 41.1 °C
- heat capacity change of unfolding (pH 1.1, glycine-HCl 50mM): 0.86 kcal/mol/K
- unfolding enthalpy (calorimetric) (pH 1.1, glycine-HCl 50mM): 39 kcal/mol
- Tm (pH 1.3, glycine-HCl 50mM): 41.3 °C
- heat capacity change of unfolding (pH 1.3, glycine-HCl 50mM): 0.97 kcal/mol/K
- unfolding enthalpy (calorimetric) (pH 1.3, glycine-HCl 50mM): 36.7 kcal/mol
- Tm (pH 1.65, glycine-HCl 50mM): 46.1 °C
- heat capacity change of unfolding (pH 1.65, glycine-HCl 50mM): 0.21 kcal/mol/K
- unfolding enthalpy (calorimetric) (pH 1.65, glycine-HCl 50mM): 39.3 kcal/mol
- Tm (pH 1.8, glycine-HCl 50mM): 47.3 °C
- heat capacity change of unfolding (pH 1.8, glycine-HCl 50mM): 0.11 kcal/mol/K
- unfolding enthalpy (calorimetric) (pH 1.8, glycine-HCl 50mM): 41.9 kcal/mol
- Tm (pH 2, glycine 50mM): 46.9 °C
- heat capacity change of unfolding (pH 2, glycine 50mM): 0.58 kcal/mol/K
- unfolding enthalpy (calorimetric) (pH 2, glycine 50mM): 41.3 kcal/mol
- Tm (pH 2.15, glycine 50mM): 51.1 °C
- heat capacity change of unfolding (pH 2.15, glycine 50mM): 0.51 kcal/mol/K
- unfolding enthalpy (calorimetric) (pH 2.15, glycine 50mM): 46.9 kcal/mol
- Tm (pH 2.25, glycine 50mM): 51.1 °C
- heat capacity change of unfolding (pH 2.25, glycine 50mM): 0.51 kcal/mol/K
- unfolding enthalpy (calorimetric) (pH 2.25, glycine 50mM): 46.7 kcal/mol
- Tm (pH 2.75, glycine 50mM): 57.6 °C
- heat capacity change of unfolding (pH 2.75, glycine 50mM): 0.35 kcal/mol/K
- unfolding enthalpy (calorimetric) (pH 2.75, glycine 50mM): 51 kcal/mol
- Tm (pH 2.85, glycine 50mM): 59.5 °C
- heat capacity change of unfolding (pH 2.85, glycine 50mM): 1.02 kcal/mol/K
- unfolding enthalpy (calorimetric) (pH 2.85, glycine 50mM): 52.3 kcal/mol
- Tm (pH 2.93, glycine 50mM): 63.9 °C
- heat capacity change of unfolding (pH 2.93, glycine 50mM): 0.44 kcal/mol/K
- unfolding enthalpy (calorimetric) (pH 2.93, glycine 50mM): 60.1 kcal/mol
- Tm (pH 3, glycine 50mM): 63.3 °C
- heat capacity change of unfolding (pH 3, glycine 50mM): 0.84 kcal/mol/K
- unfolding enthalpy (calorimetric) (pH 3, glycine 50mM): 57.4 kcal/mol
- Tm (pH 3.25, glycine 50mM): 69 °C
- heat capacity change of unfolding (pH 3.25, glycine 50mM): 0.22 kcal/mol/K
- unfolding enthalpy (calorimetric) (pH 3.25, glycine 50mM): 56.1 kcal/mol
- Tm (pH 7, Sodium phosphate 50mM): 85.8 °C
- heat capacity change of unfolding (pH 7, Sodium phosphate 50mM): 0.18 kcal/mol/K
- unfolding enthalpy (calorimetric) (pH 7, Sodium phosphate 50mM): 74.8 kcal/mol
- Tm (pH 7.01, Sodium phosphate 50mM): 85.3 °C
- heat capacity change of unfolding (pH 7.01, Sodium phosphate 50mM): 0.17 kcal/mol/K
- unfolding enthalpy (calorimetric) (pH 7.01, Sodium phosphate 50mM): 71.1 kcal/mol
- Tm (pH 7.05, Sodium phosphate 50mM): 85.5 °C
- heat capacity change of unfolding (pH 7.05, Sodium phosphate 50mM): 0.36 kcal/mol/K
- unfolding enthalpy (calorimetric) (pH 7.05, Sodium phosphate 50mM): 65.5 kcal/mol
- Tm (pH 8, Sodium phosphate 50mM): 86.5 °C
- heat capacity change of unfolding (pH 8, Sodium phosphate 50mM): 0.51 kcal/mol/K
- unfolding enthalpy (calorimetric) (pH 8, Sodium phosphate 50mM): 72.3 kcal/mol
- Tm (pH 9.2, bicine 50mM): 86.3 °C
- heat capacity change of unfolding (pH 9.2, bicine 50mM): 0.7 kcal/mol/K
- unfolding enthalpy (calorimetric) (pH 9.2, bicine 50mM): 72.1 kcal/mol
- Tm (pH 10.05, glycine 50mM): 86.5 °C
- heat capacity change of unfolding (pH 10.05, glycine 50mM): 0.53 kcal/mol/K
- unfolding enthalpy (calorimetric) (pH 10.05, glycine 50mM): 72.5 kcal/mol
- Tm (pH 10.5, glycine 50mM): 87 °C
- heat capacity change of unfolding (pH 10.5, glycine 50mM): 0.05 kcal/mol/K
- unfolding enthalpy (calorimetric) (pH 10.5, glycine 50mM): 73.6 kcal/mol
- Tm (pH 10.55, glycine 50mM): 86 °C
- heat capacity change of unfolding (pH 10.55, glycine 50mM): 0.8 kcal/mol/K
- unfolding enthalpy (calorimetric) (pH 10.55, glycine 50mM): 68.5 kcal/mol
